According to US20230126400A1 (Alector, published 2023):
Each block holds one binder with its values, some of them ahead of it.

Assays:
[1] = target: T1, human MS4A4A ECL1 peptide (amino acid residues 86-98) (human); experiment: ELISA, hybridoma supernatant
T1 construct: synthetic peptide
T1 peptide: CMASNTYGSNPIS
Description: (§1) Briefly, 96-well polystyrene plates were coated with 1-10 μg/ml of synthetic free or BSA-conjugated peptides in coating buffer (0.05M carbonate buffer, pH9.6, Millipore Sigma C3041) overnight at 4° C. Coated plates were then blocked with ELISA diluent (PBS+0.5% BSA+0.05% Tween20) for 1-hour, washed 3×300 μL in PBST (PBS+0.05% Tween20, Thermo Cat#28352), and then the antibodies were added to the plate (50 μl/ml). After 30 mins incubation (room temperature, with shaking), the plates were washed 3×300 μL in PBST. […] After a final set of washes (3×300 μL in PBST), 50 μL of TMB substrate (BioFx TMBW-1000-01) was added and the reaction was then quenched after 5-10 mins with 50 μL of stop solution (BioFx BSTP-1000-01). The quenched reaction wells were detected for absorbance at 650 nm with a BioTek Synergy Microplate Reader using GENS 2.04 software.

[2] = target: T2, BSA-conjugated human MS4A4A ECL2 peptide (amino acid residues 159-179) (human, conjugated to BSA (site not stated)); experiment: ELISA, hybridoma supernatant
T2 construct: also called MS4A4A-ECL2 BSA conjugated peptide; BSA-MS4A4A-ELC2 peptide
T2 peptide: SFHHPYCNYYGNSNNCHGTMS
Description: as §1

[3] = target: T3, human MS4A6A ECL2 peptide (amino acid residues 138-185) (human); experiment: array SPR
T3 peptide: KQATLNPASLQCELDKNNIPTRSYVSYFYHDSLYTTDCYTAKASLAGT
Description: (§2) Binding kinetic characterization of the anti-MS4A4A antibodies to MS4A4A ECL1 and ECL2 and to MS4A6A ECL1 and ECL2 peptides was performed by Carterra (South San Francisco, Calif.) using a proprietary array Surface Plasmon Resonance (SPR) instrument (MX-96) as follows. Antibodies were captured onto a CMD500D chip (Xantec # SPMX CMD500D) using the Continous Flow Microspotter (CFM). First, the chip was activated with 100 mM MES pH 5.5, 100 μL EDC (133 mM final), 100 μL of S-NHS (33.3 mM final), for 7 minutes. […] Anti-MS4A4A hydridoma supernatant or purified anti-MS4A4A antibodies were diluted in HBS-EP+ buffer (Teknova Cat # H8022) and then printed as duplicates with a 20 minute and a 5-minute print from the same sample solution.
(§3) These were then injected on the chip for five minutes, followed by a seven-minute dissociation period at 8 uL per second in a non-regenerative kinetic series. Duplicate measurements for each anti-MS4A4A antibody were taken to ensure reproducibility. Association rates (Kon) and dissociation rates (Koff) were calculated using a single one-to-one Langmuir binding model. The equilibrium dissociation constant (KD) was calculated as the ration of Koff/Kon.

[4] = target: T4, human MS4A6A ECL1 peptide (amino acid residues 68-85) (human); experiment: array SPR
T4 peptide: SASFSPNFTQVTSTLLNS
Description: as §2, §3

[5] = target: T5, human MS4A4A (human, UniProt Q96JQ5 1-239); experiment: FACS, HEK293, supernatant
Description: (§4) Positive clones identified above were expanded and then rescreened for specificity against HEK293 cells overexpressing human MS4A4A or cyno MS4A4A and parental HEK293 cells. These experiments were performed using supernatants from hybridoma clones which had undergone further expansion after initial selection. Briefly, previously prepared, cryopreserved transiently-transfected cells were labeled with LIVE/DEAD Fixable Aqua Dead Cell Stain Kit (ThermoFisher Scientific L34957) on ice for 30 minutes. After a wash with PBS, 2×10⁵ cells were aliquoted per well in 96-well U-bottom plates and incubated with 50 μl of culture supernatant on ice for 30 minutes. […] Following this secondary incubation, the cells were again washed twice with ice-cold FACS buffer and resuspended in a final volume of 200 μl of FACS buffer. Analysis was performed on a FACS Canto system (BD Biosciences), with sort gates drawn to exclude dead (Aqua-positive) cells. Positive clones (fold change of 1.8 or greater) were carried forward for further testing.

[6] = target: T6, cynomolgus (cyno) MS4A4A (cynomolgus); experiment: FACS, HEK293, supernatant
T6 construct: also called cy4A; Cyno 4A
Description: as §4

[7] = target: T6, cynomolgus (cyno) MS4A4A; experiment: FACS, 300.19 cells, supernatant
Description: (§5) Positive clones identified in Example 22 above were expanded and then rescreened for specificity against U937, K562, and/or 300.19 cells stably overexpressing human MS4A4A or cyno MS4A4A and parental U937, K562, and/or 300.19 cells. These experiments were performed using supernatants from hybridoma clones which had undergone further expansion after initial selection. Briefly, stably transfected cells were labeled with LIVE/DEAD Fixable Aqua Dead Cell Stain Kit (ThermoFisher Scientific Cat#L34957) on ice for 30 minutes. […] 2×10⁵ cells were aliquoted per well in 96-well U-bottom plates and incubated with 50 μl of culture supernatant on ice for 30 minutes. […] Following this secondary incubation, the cells were again washed twice with ice-cold FACS buffer and resuspended in a final volume of 200 μl of FACS buffer. Analysis was performed on a FACS Canto system (BD Biosciences), with gates drawn to exclude dead (Aqua-positive) cells.
(§6) The APC ratio was calculated for each antibody as follows. […] For cell lines overexpressing human MS4A4A (h4A) or cyno MS4A4A (cy4A), the ration was calculated by comparing the binding measured to the binding observed on the corresponding parental cell lines.

[8] = target: T5, human MS4A4A; experiment: FACS, K562 cells, supernatant
Description: as §5, §6

[9] = target: T7, human MS4A4A ECL2 peptide (amino acid residues 159-179), free (human); experiment: peptide ELISA, supernatant
T7 construct: synthetic peptide; also called huMS4A4A-ELC2 free-peptide
T7 peptide: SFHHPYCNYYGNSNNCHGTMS

[10] = target: T1, human MS4A4A ECL1 peptide (amino acid …); experiment: peptide ELISA
Description: as §1, with “[…]” for “1-10 μg/ml”, “Cat#C3041)” for “C3041)”, “μl/well).” for “μl/ml).”, “Cat#TMBW-1000-01)” for “TMBW-1000-01)”, “Cat#BSTP-1000-01).” for “BSTP-1000-01).”, “650nm” for “650 nm”

[11] = target: T5, human MS4A4A; experiment: FACS, U937 cells, supernatant
Description: as §5, §6

[12] = target: T7, human MS4A4A ECL2 peptide (amino acid …); experiment: peptide ELISA
Description: as §1, with “[…]” for “1-10 μg/ml”, “Cat#C3041)” for “C3041)”, “μl/well).” for “μl/ml).”, “Cat#TMBW-1000-01)” for “TMBW-1000-01)”, “Cat#BSTP-1000-01).” for “BSTP-1000-01).”, “650nm” for “650 nm”

B1: anti-MS4A4A antibody 4A-12 (antibody, V domains shown)
VH: QVQLQQSGAELAQPGASVKMSCKASGYTFSSYWMYWVKQGPGQGLEWIGYINPGTGYTEYNQKFKDKATLTADKSSSTAYMQLSSLTSEDSAVYYCARFYYGSPYYYAMDYWGQGTSVTVSS
VL: DIVMTQSQKFMSTSVGDRVTFTCKASQSVDTDVAWYQQKPGQSPKLLIYSASNRYTGVPDRFTGSGSGTDFTLTISNVQSEDLADYFCHQYNSYPLTFGAGTKLELK
notes: murine hybridoma antibody
binding result [1]: no binding
binding result [2]: no binding
binding result [3]: no binding (tested: 2000 nM)
binding result [4]: no binding (tested: 2000 nM)
Human 4A:parental cell ratio [5]: 9.58 ratio
Cyno 4A:parental cell ratio [6]: 3.96 ratio

B2: anti-MS4A4A antibody 4A-208 (murine) (antibody, V domains shown)
VH: EVHLQQSGAEVVKPGASVKLSCTASGFNIKDTYIHWVMQRPEQGLEWIGRIDPANDNTKYDPKFQGKATITSDTSSNTAYLHLSSLTSEDTAVYYCARIAYGSWALDYWGQGTSVTVSS
VL: DIVMTQSQKFMSTSVGDRVIVTCKASQNVDTNVAWYQQKPGQSPKTLIYSASFRYSGVPDRFTGSGSGTDFTLSISNVQSEDLAEYFCQQYNSYPWTFGGGTKLEIK
notes: murine hybridoma antibody
fold increase in MFI [7]: > 2 fold
fold increase in MFI [8]: > 2 fold
binding result [9]: no binding
binding result [10]: no binding
fold increase in MFI [11]: > 2 fold

B3: anti-MS4A4A antibody 4A-205 (murine) (antibody, V domains shown)
VH: EVQLVESGGDLVKPGGSLKLSCAASGFTFSHYGMSWVRQTPDKRLDWVATIGRDGIHTDYRDSVKGRFTISRDNAKNTLYLQMGSLKSEDSAIFYCARHLYYGLYYSMDYWGQGTSVTVSS
VL: ENVLTQSPAIMSASPGEKVTMTCSASSSVSFMYWYQQKSSTSPKLWIYDTSKLASGVPGRFSGSGSGNSYSLTISSMEAEDVATYYCFQGSGYPLTFGSGTKLEIK
notes: murine hybridoma antibody
fold increase in MFI [7]: > 2 fold
fold increase in MFI [8]: > 2 fold
binding result [9]: no binding
binding result [10]: no binding
fold increase in MFI [11]: > 2 fold

B4: anti-MS4A4A antibody 4A-25 (antibody, V domains shown)
VH: QVTLKESGPGILQPSQTLSLTCSFSGFSLRTSDMGVGWVRQPSGEGLEWLADIWWDDNKYYNPSLKSRLTISKDTSSNQVFLKITSVDTADTATYYCARRANYGNLFDYWGQGTAVTVSS
VL: DIVMTQSLKFMSTSVGDRVSITCKASQNVRSAVAWYQQKPGQSPKVLIYWASNRHTGVPDRFTGSGSGTDFTLTISNVQSEDLADYFCLQHWNYLTFGSGTKLEIK
notes: purified murine antibody
binding result [10]: no binding
binding result [12]: binds

B5: anti-MS4A4A antibody 4A-202 (murine) (antibody, V domains shown)
VH: QVQLQQSGAELARPGASVKLSCKASGYTFTNYWMQWVKQRPGQGLEWIGATHPGHGDTRYTQKFKGKATLSADKSSSTAYMQLSNLASEDSAVYYCAREEVYYGFRSYWYFDVWGAGTTVTVSS
VL: not shown
notes: murine hybridoma antibody
binding result [10]: no binding
binding result [12]: binds

B8: anti-MS4A4A antibody 4A-217 (murine) (antibody, V domains shown)
VH: EVKLVESGGGLVKPGGSLKLSCAASGFTFSSYGMSWVRQTPEKRLEWVAHISGGGTFTHYPDSVKGRFTISRDNAKNNLYLQMSSLRSEDTALYYCAREGAGTRFAYWGQGTLVTVSS
VL: DIQMTQTTSSLSASLGDRVTISCRPSQDISNSLNWYQQKPDGTVKLLIYSTSKLHSGVPSRFSGSGSGIDYSLTISNLEQEDIATYFCQQDYTLPWTFGGGTKLDVK
notes: murine hybridoma antibody
fold increase in MFI [7]: > 2 fold
binding result [9]: no binding
binding result [10]: no binding
fold increase in MFI [11]: > 2 fold

Other lines, results leading:

binding result [1]: no binding
binding result [2]: no binding
binding result [3]: no binding (tested: 2000 nM)
binding result [4]: no binding (tested: 2000 nM)
Human 4A:parental cell ratio [5]: 4.83 ratio
Cyno 4A:parental cell ratio [6]: 1.67 ratio
B6: anti-MS4A4A antibody 4A-17 (antibody, V domains shown)
VH: QVQLQQSAAELMKPGASVKLSCKATGYTFTGYWIEWLKQRPGHGLEWIGEILPGIGNTKYSEKFKGKATFTADTSSNTAYMQLSSLTTEDSAIYYCARSLLRAMDYWGQGTSVTVSS
VL: QIVLTQSPAIMSASPGEKVTMTCSAISSISYMHWYQLKPGTSPKRWIYDTSKLASGVPARFSGSGSGTSYSLTISSMEAEDAATYYCHQRSSYPYTFGGGTKLEIK
notes: murine hybridoma antibody

binding result [1]: no binding
binding result [2]: no binding
binding result [3]: no binding (tested: 2000 nM)
binding result [4]: no binding (tested: 2000 nM)
Human 4A:parental cell ratio [5]: 27.3 ratio
Cyno 4A:parental cell ratio [6]: 8.49 ratio
B7: anti-MS4A4A antibody 4A-5 (antibody, V domains shown)
VH: EVKVEESGGGLVQPGGSMKLSCAASGFTFSDAWMDWVRQSPEKGLEWVAEIRSKTNSHATYYAESVKGRFTISRDDSKSSVYLQMNSLRAEDTGIYYCTVDYYGIFWGQGTLVTVSS
VL: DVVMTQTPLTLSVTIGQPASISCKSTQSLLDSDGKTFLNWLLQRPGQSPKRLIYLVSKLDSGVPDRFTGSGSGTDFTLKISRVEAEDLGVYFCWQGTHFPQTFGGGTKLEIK
notes: murine hybridoma antibody
